The results in this text go back to doi:10.1101/775726, “How the dual PDZ domain from Postsynaptic density protein 95 clusters ion channels and receptors” (bioRxiv, 2019).

Test in all cases: ITC; 5 mM RRESEI in the syringe, PDZ1-2, PDZ1 or PDZ2 in the cell at nominal 0.13 mM; 25°C; 20 mM Tris-HCl, 150 mM NaCl, pH8.5; MicroCal VP-ITC; PDZ1-2 fitted assuming a single class of sites
What all share (settings): both partners purified
For orientation: Isothermal titration calorimetry measures the heat released or taken up as one component is titrated into another.

The target in experiment [1] is T1, PSD-95 PDZ1-2 dual domain (residues 55-249) (human, UniProt P78352 55-249).
T1 construct: PSD-95 (Disks large homologue 4, SAP-90), human, residues 55-249 of UniProt P78352 [98-292 of P78352-2]; PDZ1, 8-residue linker, PDZ2; cleaved construct 20.8 kDa; ends printed as NGT- and -SNA; Vector pOPINF; SASBDB entries: apo SASDGE5, SASDGF5, SASDGG5; with GSH SASDGH5, SASDGJ5, SASDGK5; also called apo:PDZ1-2; dual PDZ domain; source: E. coli BL21(DE3), purified (Ni-NTA, HRV 3C tag cleavage, …)
T1 sequence (P78352 other isoform, or with tags, fused parts or gaps): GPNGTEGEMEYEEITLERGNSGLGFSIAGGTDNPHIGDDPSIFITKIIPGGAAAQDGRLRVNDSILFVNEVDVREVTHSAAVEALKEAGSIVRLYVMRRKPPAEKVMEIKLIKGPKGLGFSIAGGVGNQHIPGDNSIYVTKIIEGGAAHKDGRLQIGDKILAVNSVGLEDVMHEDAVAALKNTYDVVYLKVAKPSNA

Experiment [2] deals with T2, PSD-95 PDZ1 domain (residues 55-152) (human, UniProt P78352 55-152).
T2 construct: Gly-Pro left at the N-terminus after HRV 3C cleavage of the tag; PSD-95, human, PDZ1, residues 55-152 of UniProt P78352 [98-195 of P78352-2]; Vector pOPINF; source: E. coli BL21(DE3), purified (Ni-NTA, HRV 3C tag cleavage, negative Ni-NTA, Superdex200 SEC); not shown: His6, N-terminal, cleaved
T2 sequence (P78352 other isoform, or with tags, fused parts or gaps): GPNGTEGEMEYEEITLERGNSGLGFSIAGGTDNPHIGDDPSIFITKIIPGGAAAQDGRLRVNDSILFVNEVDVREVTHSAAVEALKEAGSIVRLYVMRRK

The target of experiment [3] is T3, PSD-95 PDZ2 domain (residues 154-249) (human, UniProt P78352 154-249).
T3 construct: Gly-Pro left at the N-terminus after HRV 3C cleavage of the tag; PSD-95, human, PDZ2, residues 154-249 of UniProt P78352 [197-292 of P78352-2]; Vector pOPINF; source: E. coli BL21(DE3), purified (Ni-NTA, HRV 3C tag cleavage, negative Ni-NTA, Superdex200 SEC); not shown: His6, N-terminal, cleaved
T3 sequence (P78352 other isoform, or with tags, fused parts or gaps): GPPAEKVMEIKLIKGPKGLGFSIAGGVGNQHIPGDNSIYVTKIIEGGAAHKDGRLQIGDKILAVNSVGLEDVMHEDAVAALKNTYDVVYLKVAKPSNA

Usually Kd stands for the free concentration of one partner at which half of the binding sites on the other are occupied at equilibrium, for simple one-to-one binding. A high value points to lower affinity.

B1: RRESEI peptide (last 6 residues of Kir2.1) (peptide)
peptide: RRESEI
notes: last 6 residues of the inwardly rectifying potassium channel Kir2.1 (C-terminus, type I PDZ motif ESEI); also called RRESEI ligand; ligand peptide; source: synthetic peptide, 98% purity (Peptide Protein Research Ltd.)
With B1, the Kd is 90 ± 9 µM in experiment [1], 6 ± 6 µM in experiment [2] and 60 ± 2 µM in experiment [3].
